Results as given in patent EP4725965A1 (Sunshine Guojian Pharmaceutical (Shanghai) Co., Ltd., dated 2026).

How the values were obtained:
[1] = target: T1, human BDCA2 on cells (293FT-BDCA2 stable transfectant) (human, UniProt Q8WTT0 1-213); assay: flow cytometry (FACS) on 293FT-BDCA2 cells
T1 construct: whole, on cells; Also used here as the target for the PBMC assays, where native BDCA2 stands on pDCs; also called CLEC4C
T1 sequence (looked up): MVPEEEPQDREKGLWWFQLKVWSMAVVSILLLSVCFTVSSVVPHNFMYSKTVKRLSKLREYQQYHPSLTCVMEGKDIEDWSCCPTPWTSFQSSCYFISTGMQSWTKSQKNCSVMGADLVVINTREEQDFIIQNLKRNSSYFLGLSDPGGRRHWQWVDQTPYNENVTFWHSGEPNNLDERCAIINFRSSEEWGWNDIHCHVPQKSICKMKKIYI

human BDCA2-Fc protein = target: T2, human BDCA2-Fc protein (human, UniProt Q8WTT0 45-213); assay: ELISA, BDCA2-Fc coated at 1 ug/mL
T2 sequence: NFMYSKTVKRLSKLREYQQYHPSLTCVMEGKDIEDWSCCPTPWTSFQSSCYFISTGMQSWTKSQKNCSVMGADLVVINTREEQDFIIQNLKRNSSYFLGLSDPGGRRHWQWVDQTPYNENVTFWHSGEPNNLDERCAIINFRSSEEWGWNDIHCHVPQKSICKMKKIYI

B1: 23C10A6B5 (antibody, V domains shown)
VH: QVQLQQPGADLVKPGASVMMSCKASGYTFTSYIIHWVKQTPGQGLEWIGTIYPGNGDTSYNQKFKGKATLTADKSSSTAYMQLSSLTSEDSAVYYCARMGDNEYFDYWGQGTTLTVSS
VL: DIQMTQSPASLSASVGETVTITCRASGNIHNYLAWYQQKQGKSPQLLVYDAETLADGVPSRFSGSGSGTQYSLNINSLQPEDFGSFYCQHFWSTPYTFGGGTKLEIK
notes: Murine monoclonal antibody from hybridoma; also called hybridoma clone 23C10A6B5
B1 was tested, and the EC50 [1] was 0.0835 µg/mL and the EC50 (human BDCA2-Fc protein) was 0.0201 µg/mL.
